Data reported in paper PMC3111433.

Molecular target: Francisella tularensis subsp. holarctica LVS 2-C-methyl-D-erythritol 4-phosphate cytidylyltransferase (Francisella tularensis subsp. holarctica LVS)
Assay: SEC

Q: With “Francisella tularensis subsp. holarctica LVS 2-C-methyl-D-erythritol 4-phosphate cytidylyltransferase (enzyme)” as the substance, how does the stoichiometry N read?
A: 2
